{
  "source": "patent US6858425",
  "tested_on": "mannose 6-phosphate receptors on the cell surface of fibroblasts",
  "data": [
    {"substance": "recombinant human acid α-glucosidase produced in the milk of transgenic mice", "values": [
      {"measurement": "restoration of acid α-glucosidase activity in GSD II patient fibroblasts after 20 hours with the enzyme", "result": "Under these conditions acid α-glucosidase of the patient fibroblasts was restored to the level measured in fibroblasts from healthy individuals"},
      {"measurement": "restoration of acid α-glucosidase activity in GSD II patient fibroblasts, with 5 mM mannose 6-phosphate as a competitor", "result": "Restoration by α-glucosidase form milk was inhibited by 5 mM mannose 6-phosphate"}
    ]}
  ]
}
